Our source for the Km values is ChEMBL document CHEMBL4402607, “Molecular Basis for Omapatrilat and Sampatrilat Binding to Neprilysin-Implications for Dual Inhibitor Design with Angiotensin-Converting Enzyme” (J Med Chem, 2020).

As a reminder, the Km is the substrate concentration at which the rate is half of its maximum.

Substrate in the series: N=C(N)NCCC[C@H](NC(=O)[C@H](Cc1ccccc1)NC(=O)[C@@H]1CCCN1C(=O)[C@H](CO)NC(=O)[C@H](Cc1ccccc1)NC(=O)CNC(=O)[C@@H]1CCCN1C(=O)[C@@H]1CCCN1C(=O)[C@@H](N)CCCNC(=N)N)C(=O)O
Description: Substrate activity at human ACE expressed in CHO cells by HPLC analysis. It counts as cell-based.

B1: Angiotensin-converting enzyme (Homo sapiens), P12821 (protein)
chain: MGAASGRRGPGLLLPLPLLLLLPPQPALALDPGLQPGNFSADEAGAQLFAQSYNSSAEQVLFQSVAASWAHDTNITAENARRQEEAALLSQEFAEAWGQKAKELYEPIWQNFTDPQLRRIIGAVRTLGSANLPLAKRQQYNALLSNMSRIYSTAKVCLPNKTATCWSLDPDLTNILASSRSYAMLLFAWEGWHNAAGIPLKPLYEDFTALSNEAYKQDGFTDTGAYWRSWYNSPTFEDDLEHLYQQLEPLYLNLHAFVRRALHRRYGDRYINLRGPIPAHLLGDMWAQSWENIYDMVVPFPDKPNLDVTSTMLQQGWNATHMFRVAEEFFTSLELSPMPPEFWEGSMLEKPADGREVVCHASAWDFYNRKDFRIKQCTRVTMDQLSTVHHEMGHIQYYLQYKDLPVSLRRGANPGFHEAIGDVLALSVSTPEHLHKIGLLDRVTNDTESDINYLLKMALEKIAFLPFGYLVDQWRWGVFSGRTPPSRYNFDWWYLRTKYQGICPPVTRNETHFDAGAKFHVPNVTPYIRYFVSFVLQFQFHEALCKEAGYEGPLHQCDIYRSTKAGAKLRKVLQAGSSRPWQEVLKDMVGLDALDAQPLLKYFQPVTQWLQEQNQQNGEVLGWPEYQWHPPLPDNYPEGIDLVTDEAEASKFVEEYDRTSQVVWNEYAEANWNYNTNITTETSKILLQKNMQIANHTLKYGTQARKFDVNQLQNTTIKRIIKKVQDLERAALPAQELEEYNKILLDMETTYSVATVCHPNGSCLQLEPDLTNVMATSRKYEDLLWAWEGWRDKAGRAILQFYPKYVELINQAARLNGYVDAGDSWRSMYETPSLEQDLERLFQELQPLYLNLHAYVRRALHRHYGAQHINLEGPIPAHLLGNMWAQTWSNIYDLVVPFPSAPSMDTTEAMLKQGWTPRRMFKEADDFFTSLGLLPVPPEFWNKSMLEKPTDGREVVCHASAWDFYNGKDFRIKQCTTVNLEDLVVAHHEMGHIQYFMQYKDLPVALREGANPGFHEAIGDVLALSVSTPKHLHSLNLLSSEGGSDEHDINFLMKMALDKIAFIPFSYLVDQWRWRVFDGSITKENYNQEWWSLRLKYQGLCPPVPRTQGDFDPGAKFHIPSSVPYIRYFVSFIIQFQFHEALCQAAGHTGPLHKCDIYQSKEAGQRLATAMKLGFSRPWPEAMQLITGQPNMSASAMLSYFKPLLDWLRTENELHGEKLGWPQYNWTPNSARSEGPLPDSGRVSFLGLDLDAQQARVGQWLLLFLGIALLVATLGLSQRLFSIRHRSLHRHSHGPQFGSEVELRHS
As for B1, the Km is 0.18 µM.
